Residue numbers refer to the chain shown, from its start.
Tests used:
[1] = biological target: T1, human prostate-specific membrane antigen (PSMA) (human, UniProt Q04609 1-750); experiment: cell-based or functional assay
human CD3 [2] = biological target: T2, human CD3 (human, UniProt P07766 23-207; P04234 22-171; P09693 23-182); experiment: cell-based or functional assay
[3] = biological target: T1, human prostate-specific membrane …; experiment: flow cytometry (FACS) on B16F10.9/PSMA cells
Method: (§1) Briefly, 2×10⁵ cells/well of human CD3-expressing Jurkat, cynomolgus T, or human PSMA-specific expressing cells were incubated with a serial dilution of bispecific antibodies for 30 min at 4° C. After incubation, cells were washed and a goat F(ab′)₂ anti-human Fcγ PE labeled secondary (Jackson Immunolabs) was added to the cells for an additional 30 min. Next, cells were washed, re-suspended in cold PBS+1% BSA and analyzed via flow cytometry on a BD FACS Canto II.
(§2) For FACS analysis, cells were gated by forward scatter height vs. forward scatter area for single events selection, followed by side and forward scatters. The EC₅₀ for cell binding titration was determined using Prism software. Values were calculated using 4-parameter non-linear regression analysis.

human CD3 [4] = biological target: T2, human CD3; experiment: flow cytometry (FACS) on Jurkat cells
Method: as §1, §2

cynomolgus CD3 = biological target: T3, cynomolgus CD3 (cynomolgus); experiment: flow cytometry (FACS) on cynomolgus T cells
T3 construct: whole, on cells; also called CD3 on cynomolgus T cells; Cyno T-cells
Method: as §1, §2

[5] = biological target: T4, soluble heterodimeric hCD3 mFc protein (human); experiment: SPR at 37° C., antigen-capture format, MASS-1
T4 construct: Heterodimer of two different CD3 chains fused to mFc; the names of the subunits seem to have been lost in the printed text ('hCD3 mFc'); also called soluble heterodimeric CD3 protein; Soluble Human CD3
Method: Measurements were conducted on a Sierra Sensors MASS-1 instrument.
In the antigen-capture format, the MASS-1 high-density amine sensor surface was derivatized with a goat anti-mouse IgG2a polyclonal antibody (Southern Biotech). Soluble heterodimeric CD3 protein was captured and the respective antibodies were injected over the captured antigen.
Kinetic association (kₐ) and dissociation (kd) rate constants were determined by processing and fitting the data to a 1:1 binding model using MASS-1 AnalyserR2 curve fitting software. Binding dissociation equilibrium constants (KD) and dissociative half-lives (t_{1/2}) were calculated from the kinetic rate constants as: KD (M)=kd/kₐ; and t_{1/2} (min) (In2/(60*kd).

T2 sequence (P07766 23-207 limits assumed, chain 1 of 3): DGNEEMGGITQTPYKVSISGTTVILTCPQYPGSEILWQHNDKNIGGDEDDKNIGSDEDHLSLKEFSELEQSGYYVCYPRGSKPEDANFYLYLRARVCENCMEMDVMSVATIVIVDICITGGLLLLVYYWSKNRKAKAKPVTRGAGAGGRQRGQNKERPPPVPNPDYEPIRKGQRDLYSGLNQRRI
T2 sequence (P04234 22-171 limits assumed, chain 2 of 3): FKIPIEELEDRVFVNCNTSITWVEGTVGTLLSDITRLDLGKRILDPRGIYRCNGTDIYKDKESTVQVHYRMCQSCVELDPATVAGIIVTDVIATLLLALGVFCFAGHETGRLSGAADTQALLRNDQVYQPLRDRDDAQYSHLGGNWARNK
T2 sequence (P09693 23-182 limits assumed, chain 3 of 3): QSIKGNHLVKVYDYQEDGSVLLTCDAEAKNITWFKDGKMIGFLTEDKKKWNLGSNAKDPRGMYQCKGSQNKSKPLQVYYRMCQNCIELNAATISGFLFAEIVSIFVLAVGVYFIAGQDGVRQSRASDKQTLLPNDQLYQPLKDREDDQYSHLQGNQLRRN
T4 sequence (P07766 23-126, chain 1 of 2): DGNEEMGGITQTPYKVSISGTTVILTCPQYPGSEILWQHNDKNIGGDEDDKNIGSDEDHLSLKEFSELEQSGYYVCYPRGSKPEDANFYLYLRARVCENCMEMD
T4 sequence (P04234 22-105, chain 2 of 2, further chain): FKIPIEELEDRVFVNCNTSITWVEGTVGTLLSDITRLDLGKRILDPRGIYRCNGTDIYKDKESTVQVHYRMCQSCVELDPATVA
T1 sequence (Q04609 whole entry): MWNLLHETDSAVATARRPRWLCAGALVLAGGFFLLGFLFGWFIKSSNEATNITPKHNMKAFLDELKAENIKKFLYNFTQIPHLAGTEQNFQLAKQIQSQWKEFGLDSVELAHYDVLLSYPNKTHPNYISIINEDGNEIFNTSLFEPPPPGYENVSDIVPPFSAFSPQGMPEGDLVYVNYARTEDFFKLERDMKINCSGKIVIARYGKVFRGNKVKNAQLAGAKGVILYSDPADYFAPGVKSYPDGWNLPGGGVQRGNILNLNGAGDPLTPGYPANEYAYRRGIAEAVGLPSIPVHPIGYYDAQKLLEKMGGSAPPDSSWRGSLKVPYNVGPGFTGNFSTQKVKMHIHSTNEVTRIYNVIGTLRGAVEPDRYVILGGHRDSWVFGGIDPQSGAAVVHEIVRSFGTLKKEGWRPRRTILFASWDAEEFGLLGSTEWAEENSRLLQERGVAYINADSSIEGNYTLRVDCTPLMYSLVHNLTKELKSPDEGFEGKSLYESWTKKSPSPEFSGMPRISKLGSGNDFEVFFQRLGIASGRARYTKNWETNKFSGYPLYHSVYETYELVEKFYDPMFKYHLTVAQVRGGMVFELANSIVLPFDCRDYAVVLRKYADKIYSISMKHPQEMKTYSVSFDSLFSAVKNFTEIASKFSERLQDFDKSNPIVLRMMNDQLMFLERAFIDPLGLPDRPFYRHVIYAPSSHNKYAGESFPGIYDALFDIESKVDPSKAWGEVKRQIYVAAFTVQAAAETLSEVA
T3 sequence (Q95LI5 22-198, chain 1 of 3): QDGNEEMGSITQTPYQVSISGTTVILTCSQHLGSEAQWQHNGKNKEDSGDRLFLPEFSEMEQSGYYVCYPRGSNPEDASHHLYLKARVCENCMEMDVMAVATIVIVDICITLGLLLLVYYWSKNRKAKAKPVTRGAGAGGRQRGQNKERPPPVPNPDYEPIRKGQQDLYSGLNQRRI
T3 sequence (Q95LI8 22-171, chain 2 of 3, further chain): as the sequence (P04234 22-171 limits assumed, chain 2 of 3) above, with I5V, N15K, I20V, S32T, D33N, I34N, T64A, S74N, V83L, H141R counted along it
T3 sequence (Q95LI7 23-181, chain 3 of 3, further chain): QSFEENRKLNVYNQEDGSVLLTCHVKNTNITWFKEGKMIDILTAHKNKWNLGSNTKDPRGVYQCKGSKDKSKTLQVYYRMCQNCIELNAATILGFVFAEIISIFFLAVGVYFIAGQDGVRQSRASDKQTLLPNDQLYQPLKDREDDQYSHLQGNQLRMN

B1: PSMA/CD3-001 (bispecific antibody, V domains shown)
VH 1: QVQLVESGGGVVQPGRSLRLSCAASGFTFSSYGMHWVRQAPGKGLEWVAVISYAGNNKYYADSVKGRFTVSRDNSKKTLYLQMNSLRSEDTAVYYCAKDSYYDFLTDPDVLDIWGQGTMVTVSS
VH 2: EVQLVESGGGLVQPGRSLRLSCAASGFTFDDYSMHWVRQAPGKGLEWVSGISWNSGSIGYADSVKGRFTISRDNAKNSLYLQMNSLRAEDTALYYCAKDGSGYGKFYYYGMDVWGQGTTVTVSS
VL: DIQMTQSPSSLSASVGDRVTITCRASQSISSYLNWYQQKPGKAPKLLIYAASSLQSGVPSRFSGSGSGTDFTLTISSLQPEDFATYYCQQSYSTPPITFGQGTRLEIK
notes: also called anti-PSMA x anti-CD3 bispecific antibody with anti-CD3 arm CD3-VH-G5
22RV1 Cell depletion EC50 [1]: 0.00631 nM | C4-2 Cell depletion EC50 [1]: 0.0215 nM | TrampC2.PSMA Cell depletion EC50 [1]: 0.0115 nM | T cell activation EC50 [M] (percent CD69+ of CD2+ T cells) (human CD3 [2]): 1.34e-11 M | EC50 [3]: 1.31 nM | EC50 (human CD3 [4]): ~1000 nM

B2: PSMA/CD3-002 (bispecific antibody, V domains shown)
VH 1: B1 VH 1
VH 2: B1 VH 2 with D99Y
VL: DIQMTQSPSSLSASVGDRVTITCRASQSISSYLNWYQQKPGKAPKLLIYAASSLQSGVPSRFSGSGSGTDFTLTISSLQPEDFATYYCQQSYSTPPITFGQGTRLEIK
notes: also called REGN4336; anti-PSMA x anti-CD3 bispecific antibody with anti-CD3 arm CD3-VH-G20
22RV1 Cell depletion EC50 [1]: 0.00832 nM | C4-2 Cell depletion EC50 [1]: 0.0139 nM | T cell activation EC50 [M] (percent CD69+ of CD2+ T cells) (human CD3 [2]): 6.11e-12 M | EC50 [3]: 2.09 nM | EC50 (cynomolgus CD3): 6140 nM | Kd [5]: 334 nM | T1/2 [5]: 2 min | koff [5]: 0.00577 s⁻¹ | kon [5]: 17300 M⁻¹ s⁻¹ | EC50 (human CD3 [4]): 210 nM
